Assay results published in the supplement of paper PMC7125110.
± gives the standard error. Variants at the floor of the assay were thinned out.

B1: glmS ribozyme (parent)
chain: AUAAAAGCGCCAGAACUACAGAAAUGUAGUUGACGAGGAGGAGGUUUAUCGAAUUUUCGGCGGAUGCCUCCAAA

Legend:
Details in all cases: with glucosamine-6-phosphate
glucosamine-6-phosphate [1] = variants of: B1; test: self-cleavage kobs at 640 uM GlcN6P; higher = faster cleavage; RNA array
How it was run: (§1)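 Sequenced MiSeq chips were the platform: E. coli RNA polymerase transcribed barcoded ribozyme variants on them in situ, and a hybridised Cy3 probe tracked these at 37 °C. After glucosamine-6-phosphate (40 μM to 10 mM) in HEPES/KCl/Mg(OAc)2 buffer was flowed in, tiles were imaged over ~14 h. Signals normalised to baseline and to non-cleaving reference variants were reduced to per-tile medians and fit to one- or two-exponential decays to obtain kobs. kcat and KM were derived through weighted Michaelis–Menten fits across concentrations.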

glucosamine-6-phosphate [2] = variants of: B1; test: self-cleavage kobs at 2500 uM GlcN6P; higher = faster cleavage; RNA array
How it was run: as §1

glucosamine-6-phosphate [3] = variants of: B1; test: self-cleavage kobs at 10000 uM GlcN6P; higher = faster cleavage; RNA array
How it was run: as §1

Variant	self-cleavage kobs at 640 uM GlcN6P (glucosamine-6-phosphate [1]) [s⁻¹]	self-cleavage kobs at 2500 uM GlcN6P (glucosamine-6-phosphate [2]) [s⁻¹]	self-cleavage kobs at 10000 uM GlcN6P (glucosamine-6-phosphate [3]) [s⁻¹]
A14G C67U C71U	0.000875 ± 0.00018	0.00249 ± 0.00091	
C11U G13A G44U	< 1e-05	< 1e-05	
C11U A14C A39G	0.000103 ± 3.3e-05	0.000472 ± 0.00019	
A14C C34G A64G	< 1e-05	< 1e-05	
A12C U30A U56A	0.000365 ± 0.00012	0.00105 ± 0.00026	0.00357 ± 0.00086
C11G G44U C50G G62C	< 1e-05	< 1e-05	
A15G U49A C58A U69A C70U	0.00014 ± 3.9e-05		
A15C A36C G41U	< 1e-05		
A14C G41A G62U C70G	< 1e-05	< 1e-05	
G13C A14C G32U U69C	8.31e-05 ± 2.1e-05	7.03e-05 ± 2e-05	
G13U A48C G59U G66U	< 1e-05		
C11U A15G G60U	< 1e-05		
A14U C16G G35U A36U G38U U56C U57G G60U	< 1e-05	< 1e-05	
A14G U54C C61G G62C	< 1e-05		
C16A C50G G62A A64U	6.11e-05 ± 2.7e-05	9.04e-05 ± 3.5e-05	
G13C A14U A42U A64G	< 1e-05		
A14G G35U	< 1e-05	< 1e-05	
G13C U31A G38U A39U G40C	< 1e-05		
A14G G35U A52U	< 1e-05		
A14U G40C G44C U45C C70U	< 1e-05	< 1e-05	
C11G C58G C70U	8.61e-05 ± 2.4e-05		
A15G C16U C67U	0.000521 ± 0.00014		
A14U G29A G62A U69G	7.37e-05 ± 2.9e-05		

Variant	self-cleavage kobs at 640 uM GlcN6P (glucosamine-6-phosphate [1]) [s⁻¹]	self-cleavage kobs at 2500 uM GlcN6P (glucosamine-6-phosphate [2]) [s⁻¹]	self-cleavage kobs at 10000 uM GlcN6P (glucosamine-6-phosphate [3]) [s⁻¹]
A12C G41A A42U G51C C68G C70U	< 1e-05		
A12U U45A U65G	0.000665 ± 0.00016		
G13C G41U C71U	< 1e-05		
A15C A48U C68U	< 1e-05		
A15C G44C U56C	< 1e-05		
A12G C16A A52U U57G	< 1e-05		
A12U A39C A42U G60A	< 1e-05		< 1e-05
A12U G13U U46G	< 1e-05		
C11U G35C U46A U69G	< 1e-05	< 1e-05	
A14U G37A A52U G60U	< 1e-05		
C11U C61G C67A	0.000183 ± 5.6e-05	0.000446 ± 0.00017	
A12U C50U	4.86e-05 ± 1.1e-05	9.52e-05 ± 1.7e-05	0.00036 ± 4.5e-05
A14G C58G C71A	0.000191 ± 5.2e-05	9.06e-05 ± 1.5e-05	
A14C G37A A39U C68A	< 1e-05		
G13C A39C A42U	< 1e-05		
A12C G43A C61U	< 1e-05	< 1e-05	
A14U G40C U69C C71U	< 1e-05		
A14U U30G U69G C71G	0.000132 ± 4.4e-05	0.00026 ± 5.9e-05	
A14U A15U G35A A39C G40U	< 1e-05		
A12U G62U	< 1e-05		< 1e-05
A12C G38U C67U	< 1e-05		
A14U A15G G35U	< 1e-05	< 1e-05	
G13A U57A A64C C68A	0.000763 ± 0.00019		

Variant	self-cleavage kobs at 640 uM GlcN6P (glucosamine-6-phosphate [1]) [s⁻¹]	self-cleavage kobs at 2500 uM GlcN6P (glucosamine-6-phosphate [2]) [s⁻¹]	self-cleavage kobs at 10000 uM GlcN6P (glucosamine-6-phosphate [3]) [s⁻¹]
A12C A14G G60U	< 1e-05		
A14G A15C G29A U47C C67A C71A	< 1e-05		
A14G G29A A39G A42G G43U G62C	< 1e-05	< 1e-05	
A14U U30G U54C	0.000624 ± 0.00011	0.00185 ± 0.00046	
A12C G66U C70G	7.67e-05 ± 2.5e-05		
G13A C16G G59C C68A	0.000133 ± 3.8e-05		
G13C U46G A53U U54A	< 1e-05		
A12U G32C C50G C70G	0.000371 ± 0.00015	0.000257 ± 8.3e-05	
A15G G43U A48U C50U	< 1e-05		
G13C U55A U69A	0.00022 ± 7e-05		
G13U G35U G40U A53U	< 1e-05		
A12G G13U U47G A53U G66A	< 1e-05		
A15G G29A A42C	< 1e-05		
C11U A14G A52G	8.93e-05 ± 1.6e-05	0.00029 ± 8e-05	
A15U U31C U55G G63U	< 1e-05		
G13U U31A U45G A48C	< 1e-05	< 1e-05	
A14U U65A C70U	0.000274 ± 4.7e-05	0.000248 ± 9.4e-05	0.000945 ± 0.0002
A12U G29U G37A U55A	0.000291 ± 8.3e-05	0.000446 ± 9.5e-05	
G13C C16G G41A	< 1e-05		
A12G A15G G35A C68G	< 1e-05		
A12G U31G U55A C67U	5.14e-05 ± 1.3e-05	0.00011 ± 1.9e-05	0.000176 ± 3.2e-05
A15U G38U A39C G41U U49G C70G C71G	< 1e-05		
A12C G35A A36C U56G G60C	< 1e-05	< 1e-05	
